Test results from the nanobody polyreactivity screen of Harvey et al. (2022).

test: yeast display, Sf9 membrane polyspecificity reagent, FACS + sequencing; frameworks hold sequencing errors
Outline: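 Galactose induction of a Saccharomyces cerevisiae BJ5465 synthetic nanobody display library ran 36–48 hours. The cells were then stained for 1 hour at 4 °C with 10% biotinylated, detergent-solubilized Sf9 membrane reagent, pulled down on streptavidin microbeads and FACS-sorted into low and high (top ~1%) gates on expression and reagent-binding fluorescence. Labels for polyreactivity follow the gate of origin.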

Sequence	polyreactivity (PSR sort gate)
QVQLVESGGGLVQAGGSLRLSCAASGSTFVANTMGWYRQAPATERELVASITSGDSTNYADSVKGRFTISRDNAKNTVYFQMKSLKPEDTAVYYCAAETVWYYVGGQLIYYYWGQGTQVTVSS	low polyreactivity
QVQLVESGGGLVQAGGSLRISCAASGSTFDGNAMGWYRQAPGKERELVAAISDGDSTTNADSVKGRFTISRDNAKNTVYLQMNSLKPEDTAVYYCAARSPGDQRLGRHYYGEFDYWGQGTQVTVSS	low polyreactivity
QVQLVESGGGLVQAGGTLRISCAPSGSTCVVINMGWYRQAPGKERELVAAISYSGGSTYADSVKGRFTISRDNAKNTVYLQMNSLKLEDTAVYYCAARHYWWYDYWGQGTQVTVSS	low polyreactivity
QVQLVESGGGLVQAGGSLRLSCAASGRIFGRYAMGWYRQEPGKERELVASISWSGDSTYYADSVKGRFTISRDNAKNTVYLQMNSLKPEDTAVYYCNADPFIRTWYNYGYWGQGTQVTVSS	low polyreactivity
QVQLVESGGGLVQAGGSLRLSCAASGITLGTYVMGWYRQAPGKERELVAAISSGGSTYYADSVKGRFTISRDNAKNTVYLQMNSLKPEDTAVYYCAAQYYPYYDSRVSYDYWGQGTQVTVSS	low polyreactivity
QVQLVESGGGLVQAGGSLRLSCAASGRSFDRNAMGLYRQAPGKERELVADITSIGTRTYYADSVKGRFTISRDNAKNSVYLQMNSLKPEDTAVYYCAADYYYSYWYWFSSSYGYWGQGTQVTVSS	high polyreactivity
QVQLLESGGGLLQAGASLLLSCAASGNIFYRNAMGWYRQAPGKERELVAAISSGGITYYADSVKGRYTISRDNAKNSVSLQMNSLKPEDTAVYYCAAYIRNWRATYEYWGQGSQVTVSS	high polyreactivity
QVQLVESGGGLVQAGGSLRLSCAASGITFGRNTMGWYRQAPGKERELVAAIDSGGNTYADSVKGRFTISRDNAKNTVYLQMNSLKPEDTAVYYCAVDGGEFSSSGYWGQGTQVPVSS	low polyreactivity
QVQLVESGGGLVQAGGSLRLSCAASGSIFVPYAMGWYRQAPGKERELVAAITRSSGSTYYADSVKGRFTISRDNAKNTVYLQMNSLKPEDTAVYYCAADFLLEFDYWGQGTQVTVSS	low polyreactivity
QVQVVESGGGLVQAGGSLRLSCAASGFTFDYYNMGWYRQAPGKERELVAAITSGASTNYADSVKGRFTISRDNAKNTVYLQMNSLKPEDTAVYYCAAVLAGGVYWVVHYDYWGQGTQVSVSS	low polyreactivity
QVQLVESGGGLVQAGGSLRLSCAASGFISAGYAMGWYRQAPGKERELVAAITRTGSTNYADSVKGRFTISRDNAKNTVYLQMNSLKPEDTAVYYCAAGRRGSAGYYRQFGYGYWGQGTQVTVSS	high polyreactivity
QVQLVESGGGLVQAGGSLRLSCAASGRIFSPYAMGWYRQAPGKERELVASIRGSGGSTYYADSVKGPFTISRDNAKNTVYLQMNRLKPEDTAVYYCNARNNYRFLSFGYWGQGTQVTVSS	high polyreactivity
QVQLVESGGGLVQAGGSLRLSCAASGFILGWYAMGWYRQAPGKERELVADISASGTRTYYADSVKGRFTISRDNAKNTVYLQMNSLKPEDTAVYYCNVYTKFVYAYDYWGQGTQVTLSS	high polyreactivity
QVQLVESGGGLVQAGGSLRISCAASGNIFDRYAMGWYRQAPGKEMELVAGITWSGGSTYYADSVKGRFTISRDNAKNTVYLQMNSLKPEDTAVYYCAKDPHGSDFGYWGQGTQVTVSS	low polyreactivity
QVQLVESGGGLVQAGGSLRLSCAASGRIFLRYAMGWYRQAPGKERELVAAIDFSAGSTYYADSVKGRFTISRDNAKNTVYLQMNSLKPEDTAVYYCATRLGVLYDYWGQGTQVTVSS	low polyreactivity
QVQLVESGGGLVQAGGSLRLSCAASGFTFRKYAMGLYRQAPGKERELVASITSGGSTYYADSVKGRFTISRDNAKNTVYLQMNSLKPEDNAVYYCNAVKATLASGRLRGAYYYWGQGNQVTVSS	high polyreactivity
QVQLVESGGGLVQAGGSLRLSCAASGRTLPYYAMGWYRQAPGKERELVATISSRGGSTYYADSVKGRFTISRDNAKNTVYLQMNSLKPEDTAVYYCAARGNTPRTRRYGYWGQGTQVTVSS	high polyreactivity
QVQLVESGGGLVQAGGSLRLSCSASGIIFVRNAMGWYRQAPGKERELVAAITWRGSTYYADSVKGRFTISRDNAKNTVYLQMNSLKPEDTAVYYCAAVKPHYTSFRDYYWGQGTQVTVSS	high polyreactivity
QVQLVESGGGLVQAGGSLRLSCAASGIIFGVNVMGWYRQAPGKERELVATITWRGDSTYYADSVKGRFTISRDNAKNTVYLQMNSLKPEDTAVYYCAVLRSWWYRYDYWGQGTQVTVSS	low polyreactivity
QVQLVESGGVLVQAGGSLRLTCAASASILYVYAMGWYRHAPGKERELVATITGRVVSTNYADSVKGRFTSSRDNAKNTVYLQMNSLKTEDTALYYCAASTRRRRGEYDYCGQGTQVTVSS	high polyreactivity
QVQHVESGGGLVQAGRSLRLICAASGRNSKGYAMAWDRQAPGKERELVAAYADSVKGRFTIARDNAKNTVYLQMNSLKPEDTAVYYCNADYDQVSRVGYVYWAYYYWGQGTQVTVSS	low polyreactivity
QVQLQESGGGLVQAGGSLRLSCAASGTIFRFRYMGWHRQAPGKERELVAGINGGTTTYYADSVIGRFTISRDNAKNTVYLHMNCLKPDDTAVYNCAAGASRLTYYDYWGQGTQVTVSS	low polyreactivity

Sequence	polyreactivity (PSR sort gate)
QVQLVESGGGLVQAGGSLRLSCAASGFTFGGYTMGWYRQAPGKERELVAAISRSGGSTYYADSVKGRFTISRDNAKNTVYLLMNSLKPEDTAVYYCAVTYSVRTYWYDYWGQGTQVTVSS	high polyreactivity
QVQLVESGGGLVQAGGSLRLSCAASGSIFYFYAMGWYRQAPGKERELVAAISFSGTRTYYADSVKGRFTISRDNAKNTVYLQRNSLKPEDTAVYYCNAVAYNYPRTYDYWGPGTQVTVSS	high polyreactivity
QVQLVESGGGLVQAGGSLRLTCAASGYKFKSNVMGWYRQAPGKERELVAAISWSGGRTYYADSLKGRFTISRDNAKNTVYLQMNSLKPEDTAVYYCAAVGRQSNYYVDYDYWGQGTQVTVSS	high polyreactivity
QVQLVESGGGLVQAGGSLRLSCAASGFTFPRYAMGWYRQAPGKERELVAAITTSVGNTYYADSVKGRFTISRDNAKNTVYLQMNSLKPEDTAVYYCSTIYDHFDYWGQGTQVTVSS	low polyreactivity
QVQLVESGGGLVQAGGSLRLICAASGRIFKVYAMGWYRQAPGKERELVAVITGGGSTNYADSVKGRFTISRDNAKNTVDLQMNSLKPEDTAVYYCATEGYGHGGETDGGVYSELGSWGQGTQVTVSS	low polyreactivity
QVQLVESGGGLVQAGGSLRLICAASGFIFAWYAMGWYRQAPGKERELVAAITSGGRTYYADSVKGRFTISRDNAKNTVYLQMNSMKPEDTAVYYCATDAVDSHRPYKYGPQSGSWGQGTQVTVSS	high polyreactivity
QVQLHESGCVLVQAGGSLRLRCAASRNISGSSDLGWYHQAPGKEREFVASITSGGTTYYADSVKVRFTISRDNAKNTVYLQMNSLKPEDTAVYYCAVGDPADAEFGYWGQGTQVTVSS	low polyreactivity
QVQLVESGGGLVQAGGSLRLSCAASGSIFDYYAMGWYRQAPGKERELVASITWSGGRTSYADSVKGRFTISRDNAKNTVYLQMNSLKPEDTAVYYCAAKLWSYAYQHKRVWYYYWGQGTQVTVSS	high polyreactivity
QFQLVESGGGLVQAGGSLRISCAASGRIFYRYAMGWYRPAPGKERELVASIRFSVGSTYYADSVKGRFTISRDNAKNTVYLQMNSLKPEDTAVYYCAADYTKYYRRYYYWGQGTQVTVSS	high polyreactivity
QVQLVESGGGLVQAGGSLRLSCADSGSTFRRYAMGWYRQAPGKERELVAAISWSGGSTYYADSVKGRFTISRDNAKNTVYLQMKSLKPEDTAVYYCAARGVTSYWQDYDYWGQGTQVTVSS	low polyreactivity
QVQLVESGGGLVQAGGSLRLSCAASGRIIGFYAMGRYRQAPGKERELFAAINTGGGTNYADSVKGRFTISRDNAKNTVYLQMNSLKPEDTAVYYCAARTYDYRARHKVGYWGQGTQVTVSS	high polyreactivity
QVQLEESGGGLVQAGGSLRLSCAASGSIFYVNAMGWYRQAPGKERELVAAITSSGGSTYYADSVKGRFTISRDNAKNTVYLQMNSLIPEDTAVYYCAVDVYPGVFVEEGEYWGQGTQVTVSS	low polyreactivity
QVELQVSGGGLVRAGGSLRLSCAASGNIFDADIMGWYRQAPGKERELVASITGGGSTSYAESAKGRFTISRDNAKNAVYLQMNSLKPEDTAVYYCAKDGYVYGDWYTYAYDYWGQGTQVTVSS	low polyreactivity
QVQLVESGGGLVQAGGSLRLSCAASGIIITYYTMGWYRQAPGKERELVAAIRWRGGSTYYADSVKGRFTISRDNAKNTVYLQMNSLKPEDTAVYYCNARSAFRSCGRDFLFDYWGQGTQVTGSS	high polyreactivity
QVQLVESGRGLVQAGGSLRLICAASRSIFSYNAMGWYRQAPGKERELVAAIRRGGGTYYADSVKGRFTISRDNAKNTVYLQMISLKPEDTAVYYCNAVRGNNFLGDGYWGLGTQVTVSS	high polyreactivity
QVQLVESGGGLVQAGGSLRLSCAASGSTFGYYTMGWYRQAPGKERELVAAITWSGGSTYYADSVKGRFTISRDNAKNTVYLQMNSLKPEDTAVYYCADDDYWTPFGYWGQGTQVTVSS	low polyreactivity
QVQLVESGGGIVQAGGSLRLSCAASGRTFYYNAMGWYRQAPGKERELVAAISSSGGSTYYADSVKGRFTISRDNAKNTVYLQMNSLKPEDTAGYYCAASSPGARGGGGYWGQGTQVTVSS	high polyreactivity
QVQLVESGGGLVQAGGSLRLSCAASGRTLATYAMGWYRQAPGKERELVAAISTSGTRTYYADSVKGRFTISRDNAKNTVYLQMNSLKPEDTAVYYCNAGPGYDYWGHGTQVTVSS	high polyreactivity
QVQLVESGGGLVQAGGSLRLSCAASGSIFRYYAMGWYIQAPGKERELVAVITRGGSTYYADSVKGRFTISRDNAKNTVYLQMNSLKPEDTAVYYCAADYWPAGLDRGYWGQGTQVTVSS	low polyreactivity
QVQLVESGGGLVQAGGSLRLSCAASGSTFVGNAMGWYRQAPGKERELVAAISSDSSTYYADSVKGRFTISRDNAKNTVYLQMNSLKPEDTAVYYCAEYYPGYGYGYWGQGTQVTVSS	low polyreactivity
QVQLVESGGGLVQAGGSLRLSCAASGRILYRYAMGWYRQAPGKERELVADISWSGGSRYYADSVKGRFTISRDNAKNTVYLQMNSLKPEDTAVYYCAAFRLWYSTFDYWGQGTQVTVSS	high polyreactivity
